For 1 molecule, Kd results are on record in PMC7690626 (2020).

Common to all, as to assay: FACS; CXCR4+ Toledo cells
The target in assay [1] is T22-GFP-H6-ATTO nanoconjugate (T22-GFP-H6 labeled with ATTO488) (horseshoe crab | , UniProt P14216, ATTO488 covalently bound through exposed external lysines (NHS-ester to amine); Poisson dye load distribution, positions not given).
For assay [2], the target named is T22-GFP-H6 protein nanoparticle (unlabeled) (horseshoe crab | , UniProt P14216).
Assay [3] has as its target T22-GFP-H6-S-Cy5 nanoconjugate (T22-GFP-H6 labeled with Sulfo-Cyanine5) (horseshoe crab | , UniProt P14216, Sulfo-Cyanine 5 covalently bound through exposed external lysines (NHS-ester to amine); Poisson dye load distribution, positions not given).

B1: CXCR4 receptor on human Toledo diffuse large B-cell lymphoma cells (receptor)
chain: MEGISIYTSDNYTEEMGSGDYDSMKEPCFREENANFNKIFLPTIYSIIFLTGIVGNGLVILVMGYQKKLRSMTDKYRLHLSVADLLFVITLPFWAVDAVANWYFGNFLCKAVHVIYTVNLYSSVLILAFISLDRYLAIVHATNSQRPRKLLAEKVVYVGVWIPALLLTIPDFIFANVSEADDRYICDRFYPNDLWVVVFQFQHIMVGLILPGIVILSCYCIIISKLSHSKGHQKRKALKTTVILILAFFACWLPYYIGISIDSFILLEIIKQGCEFENTVHKWISITEALAFFHCCLNPILYAFLGAKFKTSAQHALTSVSRGSSLKILSKGKRGGHSSVSTESESSSFHSS
Consider B1, for which the dissociation constant (Kd) (in general, the equilibrium constant for the complex coming apart) came to 250 nM in assay [1], 140 nM in assay [2] and 540 nM in assay [3].
